This assay concerns the target γ-tubulin of pig brain γ-tubulin complexes (pig (endogenous in brain)). Put plainly: quantitative immunoblot of the purified complexes. A general note: Immunoblotting shows a protein as a band on a membrane.

Drawing on article PMC2156165, this text covers abundance of 76p against γ-tubulin in the purified complexes for one substance.

Take “76p of pig brain γ-tubulin complexes (76-kD polypeptide, pig orthologue of h76p = hGCP4) (natural protein)”: the abundance of 76p against γ-tubulin in the purified complexes was 5 fold.
